Experimental data taken from patent publication US10544421 (NEW YORK STRUCTURAL BIOLOGY CENTER, dated 2020).

Target: T1, recombinant human acetylcholinesterase (rhAChE), cleaved protein from codon 33 to codon 574 (human, UniProt P22303 33-574)
T1 construct: range 33-574; Expressed in HEK 293-H cells, secreted, tag removed with his-TEV protease; also called purified rhAChE; human AChE
Experiment: co-crystal of rhAChE complexed with fasciculin-2, X-ray crystallography (PDB 4EY8)
Method: A crystallization buffer 44 is provided. The preferred crystallization buffer 44 contains 15-21% polyethylene glycol (PEG) 3350 and 0.17-0.21M potassium nitrate. Crystals of rhAChE are grown by sitting drop vapor diffusion at 22° C. against the crystallization buffer 44. See Block 46. Clustered hexagonal rod-shaped crystals (20×20×600 µm) are typically nucleated within 5 days and grow to full size within 3 days. Once the crystals are full size, they are harvested and flash frozen using liquid nitrogen. See Block 48. The harvested crystals 10 can then be cut and subjected to X-ray crystallography and modeling in the traditional manner. See Block 50. Since the rhAChE crystals 10 are not complexed, the X-ray crystallography produces models that more accurately represent AChE in the human brain. Additionally, the active sites that are obfuscated by snake venom in the prior art are open and active.
Referring to FIG. 4 in conjunction with FIG. 1, it will be understood that in order to complex the rhAChE crystals 10, a small volume of the complexing ligand 52 is added to the crystallization buffer 44 to create a modified crystallization buffer 54. Crystals of complexed rhAChE are grown by sitting drop vapor diffusion against the modified crystallization buffer 54. The crystals are then grown, harvested and imaged in the manner previously described.

B1: fasciculin-2 (other)
chain: TMCYSHTTTSRAILTNCGENSCYRKSRRHPPKMVLGRGCGCPPGDDNLEVKCCTSPDKCNY
notes: Used as the complexing ligand in rhAChE crystals; also called snake venom fasciculin-2
binding result: binds
